Test results published in patent US20220204580A1 (AstraZeneca / MedImmune, published 2022).
Numbered stars: 1 amine (or outer) side, 2 acyl side, 3 side chain; on linkers, the order of the positions; unused ones are H or OH. Bridge positions count the residues as written; N and C are the ends. Square brackets hold non-standard residues; d marks the D form. Side chains are listed from the residue outwards. Ends that are not written are not given here. * marks the point of attachment. C18 diacid = O=C(O)CCCCCCCCCCCCCCCCC(=O)*; γGlu = O=C(O)[C@H](CCC(=O)[*:2])N[*:1]; Aib = CC(C)(N)C(=O)O

T1: human amylin receptor (calcitonin receptor co-expressed with receptor activity modifying protein, RAMP3) (human, UniProt P30988 25-474; O60896 24-148)
T1 sequence (looked up) 1: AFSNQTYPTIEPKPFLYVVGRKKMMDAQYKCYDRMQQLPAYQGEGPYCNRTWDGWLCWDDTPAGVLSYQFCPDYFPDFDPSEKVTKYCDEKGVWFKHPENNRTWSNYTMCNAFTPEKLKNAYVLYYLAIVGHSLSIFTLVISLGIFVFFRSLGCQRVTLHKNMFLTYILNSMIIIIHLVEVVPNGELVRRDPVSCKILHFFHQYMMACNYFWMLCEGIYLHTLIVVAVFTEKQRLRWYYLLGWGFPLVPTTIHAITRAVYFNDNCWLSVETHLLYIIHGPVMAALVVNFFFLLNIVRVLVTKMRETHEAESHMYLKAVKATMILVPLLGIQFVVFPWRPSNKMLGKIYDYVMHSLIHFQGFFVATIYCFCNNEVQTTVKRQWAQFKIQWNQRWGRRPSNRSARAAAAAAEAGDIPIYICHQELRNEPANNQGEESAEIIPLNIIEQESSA
T1 sequence (looked up) 2: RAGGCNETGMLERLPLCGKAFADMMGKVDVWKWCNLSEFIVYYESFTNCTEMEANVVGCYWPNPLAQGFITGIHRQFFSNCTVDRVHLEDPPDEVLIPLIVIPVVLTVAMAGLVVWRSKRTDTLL

T2: human calcitonin receptor (human, UniProt P30988 25-474)
T2 sequence (looked up): T1 sequence (looked up) 1

T3: rat amylin receptor (calcitonin receptor co-expressed with receptor activity modifying protein, RAMP3) (rat, UniProt P32214 25-516; Q9JJ73 23-147)
T3 sequence (looked up) 1: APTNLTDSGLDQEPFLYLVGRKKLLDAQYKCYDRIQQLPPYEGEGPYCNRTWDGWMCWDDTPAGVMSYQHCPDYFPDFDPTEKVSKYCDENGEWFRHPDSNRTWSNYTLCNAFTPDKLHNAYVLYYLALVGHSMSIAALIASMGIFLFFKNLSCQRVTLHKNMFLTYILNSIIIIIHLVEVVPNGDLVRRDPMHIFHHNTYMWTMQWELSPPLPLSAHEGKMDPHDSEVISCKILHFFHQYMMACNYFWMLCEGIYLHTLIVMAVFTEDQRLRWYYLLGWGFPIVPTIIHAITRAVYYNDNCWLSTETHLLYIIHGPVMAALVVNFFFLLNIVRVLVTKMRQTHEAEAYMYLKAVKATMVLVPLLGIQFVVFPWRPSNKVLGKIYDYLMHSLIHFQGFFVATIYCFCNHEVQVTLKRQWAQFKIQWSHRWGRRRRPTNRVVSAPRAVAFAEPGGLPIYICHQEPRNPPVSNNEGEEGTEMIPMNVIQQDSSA
T3 sequence (looked up) 2: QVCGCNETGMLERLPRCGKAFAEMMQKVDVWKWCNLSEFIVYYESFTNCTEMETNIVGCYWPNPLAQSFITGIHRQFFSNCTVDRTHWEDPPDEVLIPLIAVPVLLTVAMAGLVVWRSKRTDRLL

T4: rat calcitonin receptor (rat, UniProt P32214 25-516)
T4 sequence (looked up): T3 sequence (looked up) 1

B1: Peptide 48 (SEQ ID NO: 48) (peptide)
peptide: K([γGlu-C18 diacid])CNTATCATQRLANFLRHSS[Aib]NFGPILPPTNVGSNTY-NH2
modifications: disulfide 2-7; N-terminus assumed
SMILES: CC[C@H](C)[C@H](NC(=O)[C@@H]1CCCN1C(=O)CNC(=O)[C@H](Cc1ccccc1)NC(=O)[C@H](CC(N)=O)NC(=O)C(C)(C)NC(=O)[C@H](CO)NC(=O)[C@H](CO)NC(=O)[C@H](Cc1c[nH]cn1)NC(=O)[C@H](CCCNC(=N)N)NC(=O)[C@H](CC(C)C)NC(=O)[C@H](Cc1ccccc1)NC(=O)[C@H](CC(N)=O)NC(=O)[C@H](C)NC(=O)[C@H](CC(C)C)NC(=O)[C@H](CCCNC(=N)N)NC(=O)[C@H](CCC(N)=O)NC(=O)[C@@H](NC(=O)[C@H](C)NC(=O)[C@@H]1CSSC[C@H](NC(=O)[C@@H](N)CCCCNC(=O)CC[C@H](NC(=O)CCCCCCCCCCCCCCCCC(=O)O)C(=O)O)C(=O)N[C@@H](CC(N)=O)C(=O)N[C@@H]([C@@H](C)O)C(=O)N[C@@H](C)C(=O)N[C@@H]([C@@H](C)O)C(=O)N1)[C@@H](C)O)C(=O)N[C@@H](CC(C)C)C(=O)N1CCC[C@H]1C(=O)N1CCC[C@H]1C(=O)N[C@H](C(=O)N[C@@H](CC(N)=O)C(=O)N[C@H](C(=O)NCC(=O)N[C@@H](CO)C(=O)N[C@@H](CC(N)=O)C(=O)N[C@H](C(=O)N[C@@H](Cc1ccc(O)cc1)C(N)=O)[C@@H](C)O)C(C)C)[C@@H](C)O
B2: Peptide 43 (SEQ ID NO: 43) (peptide)
peptide: K([γGlu-C18 diacid])KCNTATCATQRLANFLRHSS[Aib]NFGPILPPTEVGSNTY-NH2
modifications: disulfide 3-8; N-terminus assumed
SMILES: CC[C@H](C)[C@H](NC(=O)[C@@H]1CCCN1C(=O)CNC(=O)[C@H](Cc1ccccc1)NC(=O)[C@H](CC(N)=O)NC(=O)C(C)(C)NC(=O)[C@H](CO)NC(=O)[C@H](CO)NC(=O)[C@H](Cc1c[nH]cn1)NC(=O)[C@H](CCCNC(=N)N)NC(=O)[C@H](CC(C)C)NC(=O)[C@H](Cc1ccccc1)NC(=O)[C@H](CC(N)=O)NC(=O)[C@H](C)NC(=O)[C@H](CC(C)C)NC(=O)[C@H](CCCNC(=N)N)NC(=O)[C@H](CCC(N)=O)NC(=O)[C@@H](NC(=O)[C@H](C)NC(=O)[C@@H]1CSSC[C@H](NC(=O)[C@H](CCCCN)NC(=O)[C@@H](N)CCCCNC(=O)CC[C@H](NC(=O)CCCCCCCCCCCCCCCCC(=O)O)C(=O)O)C(=O)N[C@@H](CC(N)=O)C(=O)N[C@@H]([C@@H](C)O)C(=O)N[C@@H](C)C(=O)N[C@@H]([C@@H](C)O)C(=O)N1)[C@@H](C)O)C(=O)N[C@@H](CC(C)C)C(=O)N1CCC[C@H]1C(=O)N1CCC[C@H]1C(=O)N[C@H](C(=O)N[C@@H](CCC(=O)O)C(=O)N[C@H](C(=O)NCC(=O)N[C@@H](CO)C(=O)N[C@@H](CC(N)=O)C(=O)N[C@H](C(=O)N[C@@H](Cc1ccc(O)cc1)C(N)=O)[C@@H](C)O)C(C)C)[C@@H](C)O
B3: Peptide 44 (SEQ ID NO: 44) (peptide)
peptide: K([γGlu-C18 diacid])CNTATCATQRLANFLRHSS[Aib]NFGPILPPTEVGSNTY-NH2
modifications: disulfide 2-7; N-terminus assumed
SMILES: CC[C@H](C)[C@H](NC(=O)[C@@H]1CCCN1C(=O)CNC(=O)[C@H](Cc1ccccc1)NC(=O)[C@H](CC(N)=O)NC(=O)C(C)(C)NC(=O)[C@H](CO)NC(=O)[C@H](CO)NC(=O)[C@H](Cc1c[nH]cn1)NC(=O)[C@H](CCCNC(=N)N)NC(=O)[C@H](CC(C)C)NC(=O)[C@H](Cc1ccccc1)NC(=O)[C@H](CC(N)=O)NC(=O)[C@H](C)NC(=O)[C@H](CC(C)C)NC(=O)[C@H](CCCNC(=N)N)NC(=O)[C@H](CCC(N)=O)NC(=O)[C@@H](NC(=O)[C@H](C)NC(=O)[C@@H]1CSSC[C@H](NC(=O)[C@@H](N)CCCCNC(=O)CC[C@H](NC(=O)CCCCCCCCCCCCCCCCC(=O)O)C(=O)O)C(=O)N[C@@H](CC(N)=O)C(=O)N[C@@H]([C@@H](C)O)C(=O)N[C@@H](C)C(=O)N[C@@H]([C@@H](C)O)C(=O)N1)[C@@H](C)O)C(=O)N[C@@H](CC(C)C)C(=O)N1CCC[C@H]1C(=O)N1CCC[C@H]1C(=O)N[C@H](C(=O)N[C@@H](CCC(=O)O)C(=O)N[C@H](C(=O)NCC(=O)N[C@@H](CO)C(=O)N[C@@H](CC(N)=O)C(=O)N[C@H](C(=O)N[C@@H](Cc1ccc(O)cc1)C(N)=O)[C@@H](C)O)C(C)C)[C@@H](C)O
B4: Peptide 41 (SEQ ID NO: 41) (peptide)
peptide: K([γGlu-C18 diacid])KCNTATCATQRLANFLVHSS[Aib]NFGPILPPTEVGSNTY-NH2
modifications: disulfide 3-8; N-terminus assumed
SMILES: CC[C@H](C)[C@H](NC(=O)[C@@H]1CCCN1C(=O)CNC(=O)[C@H](Cc1ccccc1)NC(=O)[C@H](CC(N)=O)NC(=O)C(C)(C)NC(=O)[C@H](CO)NC(=O)[C@H](CO)NC(=O)[C@H](Cc1c[nH]cn1)NC(=O)[C@@H](NC(=O)[C@H](CC(C)C)NC(=O)[C@H](Cc1ccccc1)NC(=O)[C@H](CC(N)=O)NC(=O)[C@H](C)NC(=O)[C@H](CC(C)C)NC(=O)[C@H](CCCNC(=N)N)NC(=O)[C@H](CCC(N)=O)NC(=O)[C@@H](NC(=O)[C@H](C)NC(=O)[C@@H]1CSSC[C@H](NC(=O)[C@H](CCCCN)NC(=O)[C@@H](N)CCCCNC(=O)CC[C@H](NC(=O)CCCCCCCCCCCCCCCCC(=O)O)C(=O)O)C(=O)N[C@@H](CC(N)=O)C(=O)N[C@@H]([C@@H](C)O)C(=O)N[C@@H](C)C(=O)N[C@@H]([C@@H](C)O)C(=O)N1)[C@@H](C)O)C(C)C)C(=O)N[C@@H](CC(C)C)C(=O)N1CCC[C@H]1C(=O)N1CCC[C@H]1C(=O)N[C@H](C(=O)N[C@@H](CCC(=O)O)C(=O)N[C@H](C(=O)NCC(=O)N[C@@H](CO)C(=O)N[C@@H](CC(N)=O)C(=O)N[C@H](C(=O)N[C@@H](Cc1ccc(O)cc1)C(N)=O)[C@@H](C)O)C(C)C)[C@@H](C)O

target: T1, human amylin receptor (calcitonin …); experiment: cell-based or functional assay

Binder	EC50 (cAMP production) [pM]	Ratio (EC50 hCTR / EC50 hAMYR3)
B1	126	42
B2	647	29
B3	284	22
B4	178	7

target: T2, human calcitonin receptor; experiment: cell-based or functional assay

Binder	EC50 (cAMP production) [pM]
B1	5270
B2	19000
B3	6260
B4	1180

target: T3, rat amylin receptor (calcitonin …); experiment: cell-based or functional assay

Binder	EC50 (cAMP production) [pM]
B1	4.8
B2	14.5
B3	18.5
B4	8.2

target: T4, rat calcitonin receptor; experiment: cell-based or functional assay

Binder	EC50 (cAMP production) [pM]
B1	2430
B2	3650
B3	2240
B4	925
